Data: the domain aggregation screens of Martell et al. (2025)

Test: soluble fraction after stress (log2 fold change); higher = more stays soluble; pooled small domains, quantitative proteomics
Settings: stress: pH 4
Method in brief: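 Custom libraries of small protein domains were pooled and measured with high-throughput quantitative proteomics after pH 4 stress. The read-out is the fold change in the amount of each domain that stays soluble after the acid stress, taken as a measure of aggregation propensity. Fold changes are on a log2 scale, and higher values mean more of the domain stayed soluble.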

Row | Sequence | soluble fraction (log2)
1 | HMIDSEEVMETIQDLGYSPVFDVKEKFYKIKEEQIGKITLEVHIILRYGMVDLVWIVRENGELLLG | -0.454
2 | HMIDTLEYIISEESKGLRADQAITMVNGEFSRSLIQKWIKKGSILVNGKKIKPRDILNLNDKVTINPEEN | -0.633
3 | HMIEDMQQWIRQIREIVSNRLDLTRNISDDEIREVISDIVMEQSRQQYMSLNEKKTLMEGVFNSMR | -0.977
4 | HMIEEIETQFLFDFGLIGHPNSAKIREKLSEALGIGYVNGKQLQKRLMMFGITKQQVVDVLTD | -2.3
5 | HMIEMAGGYRKGDRVELHSLKGAAEHNGKQGTVVGPQGERVKVLLDDSDSKTLALKVTNLTKLESA | 0.0709
6 | HMIEMGNRIRTLRKRRVGSQSEFAEKLDVSVVTISRIENGMTKIDAELLIKMSEVLQVPVNIILGM | -1.7
7 | HMIENPGQTFERIAGKITRTLRTGPLRIQQLDLLFSESGEQVMDVLRAMAENGEILIKDDTIQWNGHN | -0.387
8 | HMIERKLRKKEHFIASVGEKVKIKNFATETYKGELISADNEKVVVETEFGKEEITYDNILAAATYFE | -1.01
9 | HMIFNENLKSAREKKGLSQKEVAEAIGVAKSTYSLYESGNREPNVQTIKRIADVLNVSADVLLGL | 0.332
10 | HMIGELVVEDLAAASEINVDTIRYYQRLGLLEPPRRRGRRAVYDHTHLERLAEIRRLAGAGFTLAQIGRLK | -1.23
11 | HMIGILSDREAEILALLDEGLTNKAIGRRLNLAEPTVKFHLKNLYAKLGVGRRQLAVNVAKGSGLLNSD | -0.167
12 | HMIGIRLKELVLKNQSAWVGLRVSELDISRKTMIVMIRRGDKMLIPNGSTILRSGDVLLLYTR | -0.354
13 | HMIGITTANLNVRTGTDTNYTSIAILPKGTKVNILEENVKPGWYKIQFDEIYAFVSSKYIKIQS | 0.243
14 | HMIGMDMQELIGRYKGDPDEMGKIELAAMSMLKLSEDMSSDHVLQKSKLRQDGLWLLKYVQE | -1.03
15 | HMIHEQSLHKIRNFIGSLPESLRTAFTLREQDGLSYEEIGKITNTPIGTVRSRIYRARESILDHINQE | -0.2
16 | HMIHIGAQEALGEFQDEEGNLTASKKEVVAALVKKSKEVSFPTSYEYEVAARMAADEYNDAGQRMA | -0.079
17 | HMIHKTDAINLGQRLLKSSLKEFDVSLKDIPNKTLMYILSEYKFNSLDDLYREIGLGNVIPKLVALRMAP | -0.436
18 | HMIHTYVETRKVGNNDGLIRVDNKYYRVPQHLVGMKVQIQIDEATISVLQGGVMVATLDKTADVFNPQA | -1.74
19 | HMIIDPQIRTLWTSQIIDILKSNPKRSIRSILELYPSNKESWVLIILQELIGEEKIIRDLDYLYFNK | -1.26
20 | HMIIIMKMGADESQVQETIKRIKDLGFNTHLSKGENRTIIGVIGDVSSIDESDVERLRATPYIAEVVRVS | 0.417
21 | HMIIIPKKDYDVSQLDNLVSWLKDRGLEVHISRGENLTVIGLIGDTSKIDIDLIRSLDVVEEVKRIQ | -1.31
22 | HMIIVMASSKKEDVAHVVHKIEELGYKAHVIVGVERTVVAAVGDERGKERLISLEALPHVEKVFPILK | -0.167
23 | HMIKEVEYSQFLQMTDQGEVGKVEINEQENSILFTDKAEKNIYKTGMVEDAELSMRLYEAGIPFSGQI | -2.29
24 | HMIKEYEVLNYVTYEYDEIKKKLEEDFGIIVLMKEAYSDETPAGIIMDQDVEQGRIFKEGATNTITFTVS | -1.2
25 | HMIKLSEAEWKVMKLLWEESPKTMMQITNLLKETTGWTKHTVMTFLKRMEEKKAIHYEEGGRAKLYYP | -0.0902
26 | HMIKVASVDGASDELAHEIREIMPLDFPVSYFDLDIKYLHKVLNDIPAVESAAIKVTVSGVLQIDISER | 0.248
27 | HMILALAISSEEDDARIYATYADRLREAYPASARVFEGMVDEEHEHRRRLIDLFQRRFGDTIPLVRREHV | -0.836
28 | HMILNPADEEKMNLINFELQQRGLEINDKEMQYIFTHHSRDLNSLLNLAEKLDEISHQEKKSISINLIKKI | -0.158

Row | Sequence | soluble fraction (log2)
29 | HMILNWSEYTRSEIIELARDLSPDKYMIIDDINTYSKMKLLPSQAFIAEMFGSLRQFQKEAWGRE | -1.27
30 | HMILPKFNQLLGQMGENIKLARKRRKLTAVQVSERAGIARSTLYLIEKGDASVSLGAYFNVLRVLG | -0.214
31 | HMIMEVDYGTFMKMTEENAIGRVQMDSTEIIFTDKENTQVYSTGIMYDPDLTQRLYDAGAVFA | -1.58
32 | HMIMGTIEKRGPFSFRIGVQVRLPDGSWEWIRDTIHVSPDLSARAARKQAEMALARLEADVYEGKRKPD | -0.0141
33 | HMIMLDRILKIMDYNKFTPSEFADVLEIDRSRLSHILNGRNKPSLEIVMKILEKFPEISSDWLLFGSGNML | -2.01
34 | HMIMNEYEELRDRYLIGQIWKIGDLIEAKGIEGKIIQRGTNYVTFNDNNGKVHKAWLHEIKYEQ | -0.559
35 | HMIMNKEIPVVADEFVEKEFGTGAVKLTPAHDPNDYESGERHGLEVVEVFDETGKMNDLVPEYEG | -0.0198
36 | HMIMTGSIQEKNGKYYTVLNIKDKNGKYKKKWQTTGLPVKGNKRKAEQILRRRIAEYEANQL | ≥ 0.43
37 | HMIMTHSALLEKDGFDIVKVHFERPNDDGFDFLDMTLPGEIVYKSFGFSEDEILKLKRYAKNNSSLIWDF | -1.87
38 | HMINEDMTQSDRMELWGRLIDVVEDWLAEKGITEEDIPNEEREGVEDAAIIFGDDYDYLADRFSEVIGISR | -1.99
39 | HMINFKVKNVQDVGSRLDKFLVTNIPEFSRSKIQKHIKNGKVMVNGLLKKTGYKLEINDEINILNN | 0.198
40 | HMINLDYILELIFEKNNKTKDKTALIEEIRGVIRASVGNRAKESLIVDFINDTDLDTITDKASIIESFFEY | -2.64
41 | HMINLTKVGNFISIIKLQQIWTIDELLKKVDINYDELLYLLTILSDIYSKNGEYFFDFDIDAENNKILFNN | -0.3
42 | HMINVGYKFKQIRENAGLTLKQVSAMSGLSVSFISQIERGVVDPSWSSLKKISAALNIKLKDLF | -0.449
43 | HMIPDLPAIGENLYRERKRQQLSMAELAAASGISKAMLSQIEADKVNPTIATLWKIAHALHVDLESLISGG | -0.0815
44 | HMIPDPEKVMFDGGIRLLTQAGITEGKARSILGKWKRDHETERIIAALGAAQREGAIEPVSFIERVLRN | -0.475
45 | HMIPKIIDITDLNEEVREVIEEYMKRKRVEKYHIYQDSKGQIFIISGSAIIRYDSKLNNLYYL | -0.395
46 | HMIPLKTEAIPVSYGDGAAIIRSLAVAFPSRTFHWDAQTRRIIGQALDEEWQVIRSLVWQLDIP | -1.06
47 | HMIPLSDEETILLKLLEATETHLDALIRGSQLSAAKVSVVLMGMEMKRLVKRLPGQMYQRWD | -1.55
48 | HMIPRNLEDLVRENQIGLVILKIVEIIGEDNIRDLDPETIYFINRILNELNLKKIRNNILSEALPPR | -0.8
49 | HMIPSEQYNTALTEIGLSTRAHNSLRRAGIMTLGQLIEKTRDGLPPLPGFGDKSQVEVQDLLTGLGYPI | -1.03
50 | HMIPSGISEHPISKLPLSMSIIHRLELAGIKTIGDITGENFSRLQEIPRIGKVTAKRILEAIQSYSEQLP | -0.273
51 | HMIPYQDPLPKGAEESLLSKYPGFEITGVHFVNDTNFIGYKVRLERGEDREEISLDVNGKFL | -0.169
52 | HMIQADFIPQVEQRLADRGLSMSGDVMAAFLDRAGYGLRHVSNEIEKLSLYLGDRKKVTVEDVVQMVAPVR | -0.415
53 | HMIQAGDLVFIWNPKKGDNFLIKVTPGMSQGTHFGQIKHTELMEREYGEGIVTPKGEVYYLLRPTLAGYTR | -1.3
54 | HMIQIGEQIRYYRTKIGISQEALALMADINPAYIGQIERGIKSPTVNTIKKIANAMGINLHTLFT | -0.434
55 | HMIQKTHPALEIVKEYFSSQAASEFEAERFFNYYTSNGWLIGGKTKMKDWQAAARNWILNTAK | -0.255
